Data published in patent publication US20120014957A1 (AbbVie / Abbott, published 2012).

How the values were obtained:
IGFR on cells [1] = molecular target: T1, IGFR on cells (UniProt P08069 31-1367, limits assumed); test: flow cytometry on cells, antibody at 2 ug/mL
T1 construct: whole, on cells; also called IGF1R
Procedure: (§1) Stable cell lines overexpressing a cell-surface antigen of interest or human tumor cell lines were harvested from tissue culture flasks and resuspended in phosphate buffered saline (PBS) containing 5% fetal bovine serum (PBS/FBS). Prior to staining, human tumor cells were incubated on ice with (100 μl) human IgG at 5 μg/ml in PBS/FCS. 1−5×10⁵ cells were incubated with antibody or DVD-Ig (2 μg/mL) in PBS/FBS for 30-60 minutes on ice. Cells were washed twice and 100 μl of F(ab′)2 goat anti human IgG, Fcγ-phycoerythrin (1:200 dilution in PBS) (Jackson ImmunoResearch, West Grove, Pa., Cat. #109-116-170) was added. After a 30 minute incubation on ice, cells were washed twice and resuspended in PBS/FBS. Fluorescence was measured using a Becton Dickinson FACSCalibur (Becton Dickinson, San Jose, Calif.).
(§2) The geometric mean is the n root of the multiplication product of n fluorescent signals (a1×a2×a3 . . . an). With log-transformed data the geometric mean is used to normalize the weighting of the data distribution.

IGFR on cells [2] = molecular target: T1, IGFR on cells; test: flow cytometry on cells, DVD-Ig at 2 ug/mL
Procedure: as §1, §2

DLL4 on cells = molecular target: T2, DLL4 on cells (UniProt Q9NR61 27-685, limits assumed); test: flow cytometry on cells, antibody at 2 ug/mL
T2 construct: whole, on cells
Procedure: as §1, §2

Recombinant Human DLL4 = molecular target: T3, Recombinant Human DLL4 (human, UniProt Q9NR61 27-524); test: SPR (Biacore)
T3 construct: Bought reagent of the Biacore analyses
Procedure: (§3) The BIACORE assay (Biacore, Inc, Piscataway, N.J.) determines the affinity of antibodies or DVD-Ig with kinetic measurements of on-rate and off-rate constants. Binding of antibodies or DVD-Ig to a target antigen (for example, a purified recombinant target antigen) was determined by surface plasmon resonance-based measurements with a Biacore® 1000 or 3000 instrument (Biacore® AB, Uppsala, Sweden) using running HBS-EP (10 mM HEPES [pH 7.4], 150 mM NaCl, 3 mM EDTA, and 0.005% surfactant P20) at 25° C. All chemicals were obtained from Biacore® AB (Uppsala, Sweden) or otherwise from a different source as described in the text. For example, approximately 5000 RU of goat anti-mouse IgG, (Fcγ), fragment specific polyclonal antibody (Pierce Biotechnology Inc, Rockford, Ill.) diluted in 10 mM sodium acetate (pH 4.5) was directly immobilized across a CM5 research grade biosensor chip using a standard amine coupling kit according to manufacturer's instructions and procedures at 25 μg/ml. Unreacted moieties on the biosensor surface were blocked with ethanolamine. Modified carboxymethyl dextran surface in flowcell 2 and 4 was used as a reaction surface. Unmodified carboxymethyl dextran without goat anti-mouse IgG in flow cell 1 and 3 was used as the reference surface. For kinetic analysis, rate equations derived from the 1:1 Langmuir binding model were fitted simultaneously to association and dissociation phases of all eight injections (using global fit analysis) with the use of Biaevaluation 4.0.1 software. Purified antibodies or DVD-Ig were diluted in HEPES-buffered saline for capture across goat anti-mouse IgG specific reaction surfaces. Antibodies or DVD-Ig to be captured as a ligand (25 μg/ml) were injected over reaction matrices at a flow rate of 5 μl/min. The association and dissociation rate constants, kₒₙ (M⁻¹s⁻¹) and koff (s⁻¹) were determined under a continuous flow rate of 25 μl/min. Rate constants were derived by making kinetic binding measurements at different antigen concentrations ranging from 10-200 nM. The equilibrium dissociation constant (M) of the reaction between antibodies or DVD-Igs and the target antigen was then calculated from the kinetic rate constants by the following formula: KD=koff/kₒₙ. Binding was recorded as a function of time and kinetic rate constants were calculated.

CD-20 on cells [3] = molecular target: T4, CD-20 on cells (UniProt P11836 1-297, limits assumed); test: flow cytometry on cells, antibody at 2 ug/mL
T4 construct: whole, on cells
T4 sequence (looked up): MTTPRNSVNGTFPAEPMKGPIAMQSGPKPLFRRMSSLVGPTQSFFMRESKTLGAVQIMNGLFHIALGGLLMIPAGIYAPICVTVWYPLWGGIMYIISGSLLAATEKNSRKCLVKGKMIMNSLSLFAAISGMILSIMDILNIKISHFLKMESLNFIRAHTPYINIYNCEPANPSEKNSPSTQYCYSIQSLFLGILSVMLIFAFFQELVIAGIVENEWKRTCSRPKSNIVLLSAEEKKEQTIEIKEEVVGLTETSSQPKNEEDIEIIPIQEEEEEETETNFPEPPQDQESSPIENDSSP
Procedure: as §1, §2

CD-20 on cells [4] = molecular target: T4, CD-20 on cells; test: flow cytometry on cells, DVD-Ig at 2 ug/mL
Procedure: as §1, §2

[5] = molecular target: T5, Recombinant Human VEGF 165 (human, UniProt P15692-4 27-191); test: SPR (Biacore)
T5 construct: Bought reagent
Procedure: as §3

Recombinant Human PlGF = molecular target: T6, Recombinant Human PlGF (human, UniProt P49763-2 21-149, limits assumed); test: SPR (Biacore)
T6 construct: Bought reagent; also called P1GF
T6 sequence (looked up): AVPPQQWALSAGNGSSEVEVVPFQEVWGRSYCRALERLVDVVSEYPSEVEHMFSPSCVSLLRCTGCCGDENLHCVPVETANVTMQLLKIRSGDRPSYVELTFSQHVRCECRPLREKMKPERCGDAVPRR
Procedure: as §3

[6] = molecular target: T7, Recombinant Human MSP R/Ron (human, UniProt Q04912 25-571, limits assumed); test: SPR (Biacore)
T7 construct: Bought reagent
Procedure: as §3

T5 sequence (P15692 other isoform, or with tags, fused parts or gaps limits assumed): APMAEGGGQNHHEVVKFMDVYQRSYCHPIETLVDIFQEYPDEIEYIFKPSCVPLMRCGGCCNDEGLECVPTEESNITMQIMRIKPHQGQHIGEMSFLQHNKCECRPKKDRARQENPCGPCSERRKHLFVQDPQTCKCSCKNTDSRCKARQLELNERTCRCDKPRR

B1: AB011 (antibody, V domains shown)
VH: EVQLLESGGGLVQPGGSLRLSCTASGFTFSSYAMNWVRQAPGKGLEWVSAISGSGGTTFYADSVKGRFTISRDNSRTTLYLQMNSLRAEDTAVYYCAKDLGWSDSYYYYYGMDVWGQGTTVTVSS
VL: DIQMTQFPSSLSASVGDRVTITCRASQGIRNDLGWYQQKPGKAPKRLIYAASRLHRGVPSRFSGSGSGTEFTLTISSLQPEDFATYYCLQHNSYPCSFGQGTKLEIKR
notes: Parent antibody; also called IGFR; IGF1R
FACS Geometric Mean (IGFR on cells [1]): 535

B2: DVD1324 (bispecific antibody, human IgG1, kappa)
heavy: not shown
light: DIQMTQFPSSLSASVGDRVTITCRASQGIRNDLGWYQQKPGKAPKRLIYAASRLHRGVPSRFSGSGSGTEFTLTISSLQPEDFATYYCLQHNSYPCSFGQGTKLEIKRTVAAPDIQMTQSPSSLSASVGDRVTITCRASEDIYNALAWYQQKPGKAPKLLIYNTDTLHTGVPSRFSGSGSGTDYTLTISSLQPEDFATYFCQHYFHYPRTFGQGTKVEIKRTVAAPSVFIFPPSDEQLKSGTASVVCLLNNFYPREAKVQWKVDNALQSGNSQESVTEQDSKDSTYSLSSTLTLSKADYEKHKVYACEVTHQGLSSPVTKSFNRGEC
notes: DVD-Ig; also called DVD1324H; DVD1324L
FACS Geometric Mean N-terminal (IGFR on cells [2]): 825

B3: AB015 (antibody, V domains shown)
VH: EVQLVESGGGLVQPGGSLRLSCAASGFTFTDNWISWVRQAPGKGLEWVGYISPNSGFTYYADSVKGRFTISADTSKNTAYLQMNSLRAEDTAVYYCARDNFGGYFDYWGQGTLVTVSS
VL: DIQMTQSPSSLSASVGDRVTITCRASQDVSTAVAWYQQKPGKAPKLLIYSASFLYSGVPSRFSGSGSGTDFTLTISSLQPEDFATTYYCQQSYTGTVTFGQGTKVEIKR
notes: Parent antibody; also called DLL4; AB015VH
FACS Geometric Mean (DLL4 on cells): 308 | Kd (Recombinant Human DLL4): 0.414 nM | koff (Recombinant Human DLL4): 0.000166 s⁻¹ | kon (Recombinant Human DLL4): 400000 M⁻¹ s⁻¹

B4: AB001 (antibody, V domains shown)
VH: QVQLQQPGAELVKPGASVKMSCKASGYTFTSYNMHWVKQTPGRGLEWIGAIYPGNGDTSYNQKFKGKATLTADKSSSTAYMQLSSLTSEDSAVYYCARSTYYGGDWYFNVWGAGTTVTVSA
VL: QIVLSQSPAILSPSPGEKVTMTCRASSSVSYIHWFQQKPGSSPKPWIYATSNLASGVPVRFSGSGSGTSYSLTISRVEAEDAATYYCQQWTSNPPTFGGGTKLEIKR
notes: Parent antibody; also called CD-20; AB001VH
FACS Geometric Mean (CD-20 on cells [3]): 1400

B5: DVD1336 (bispecific antibody, human IgG1, kappa)
heavy: not shown
light: QIVLSQSPAILSPSPGEKVTMTCRASSSVSYIHWFQQKPGSSPKPWIYATSNLASGVPVRFSGSGSGTSYSLTISRVEAEDAATYYCQQWTSNPPTFGGGTKLEIKRTVAAPDIQMTQSPSSLSASVGDRVTITCRASEDIYNALAWYQQKPGKAPKLLIYNTDTLHTGVPSRFSGSGSGTDYTLTISSLQPEDFATYFCQHYFHYPRTFGQGTKVEIKRTVAAPSVFIFPPSDEQLKSGTASVVCLLNNFYPREAKVQWKVDNALQSGNSQESVTEQDSKDSTYSLSSTLTLSKADYEKHKVYACEVTHQGLSSPVTKSFNRGEC
notes: DVD-Ig; also called DVD1336H; DVD1336L
FACS Geometric Mean N-terminal (CD-20 on cells [4]): 754

B6: DVD1328 (bispecific antibody, human IgG1, kappa)
heavy: not shown
light: DIQMTQSPSSLSASVGDRVTITCSASQDISNYLNWYQQKPGKAPKVLIYFTSSLHSGVPSRFSGSGSGTDFTLTISSLQPEDFATYYCQQYSTVPWTFGQGTKVEIKRTVAAPDIQMTQSPSSLSASVGDRVTITCRASEDIYNALAWYQQKPGKAPKLLIYNTDTLHTGVPSRFSGSGSGTDYTLTISSLQPEDFATYFCQHYFHYPRTFGQGTKVEIKRTVAAPSVFIFPPSDEQLKSGTASVVCLLNNFYPREAKVQWKVDNALQSGNSQESVTEQDSKDSTYSLSSTLTLSKADYEKHKVYACEVTHQGLSSPVTKSFNRGEC
notes: DVD-Ig; also called DVD1328H; DVD1328L
Kd [5]: 0.08 nM | koff [5]: 7.7e-05 s⁻¹ | kon [5]: 960000 M⁻¹ s⁻¹

B7: DVD1330 (bispecific antibody, human IgG1, kappa)
heavy: not shown
light: DIQMTQSPSSLSASVGDRVTITCRASQDVSTAVAWYQQKPGKAPKLLIYSASFLYSGVPSRFSGSGSGTDFTLTISSLQPEDFATTYYCQQSYTGTVTFGQGTKVEIKRTVAAPDIQMTQSPSSLSASVGDRVTITCRASEDIYNALAWYQQKPGKAPKLLIYNTDTLHTGVPSRFSGSGSGTDYTLTISSLQPEDFATYFCQHYFHYPRTFGQGTKVEIKRTVAAPSVFIFPPSDEQLKSGTASVVCLLNNFYPREAKVQWKVDNALQSGNSQESVTEQDSKDSTYSLSSTLTLSKADYEKHKVYACEVTHQGLSSPVTKSFNRGEC
notes: DVD-Ig; also called DVD1330H; DVD1330L
Kd (Recombinant Human DLL4): 0.38 nM | koff (Recombinant Human DLL4): 0.0002 s⁻¹ | kon (Recombinant Human DLL4): 520000 M⁻¹ s⁻¹

B8: AB047 (antibody, V domains shown)
VH: QVQLQQSGAELVKPGASVKISCKASGYTFTDYYINWVKLAPGQGLEWIGWIYPGSGNTKYNEKFKGKATLTIDTSSSTAYMQLSSLTSEDTAVYFCVRDSPFFDYWGQGTLLTVSS
VL: DIVLTQSPDSLAVSLGERVTMNCKSSQSLLNSGMRKSFLAWYQQKPGQSPKLLIYWASTRESGVPDRFTGSGSGTDFTLTISSVQAEDVAVYYCKQSYHLFTFGSGTKLEIKR
notes: Parent antibody; also called PlGF; AB047VH
Kd (Recombinant Human PlGF): 0.0282 nM | koff (Recombinant Human PlGF): 0.000108 s⁻¹ | kon (Recombinant Human PlGF): 3.8e+06 M⁻¹ s⁻¹

B9: DVD1332 (bispecific antibody, human IgG1, kappa)
heavy: not shown
light: DIVLTQSPDSLAVSLGERVTMNCKSSQSLLNSGMRKSFLAWYQQKPGQSPKLLIYWASTRESGVPDRFTGSGSGTDFTLTISSVQAEDVAVYYCKQSYHLFTFGSGTKLEIKRTVAAPDIQMTQSPSSLSASVGDRVTITCRASEDIYNALAWYQQKPGKAPKLLIYNTDTLHTGVPSRFSGSGSGTDYTLTISSLQPEDFATYFCQHYFHYPRTFGQGTKVEIKRTVAAPSVFIFPPSDEQLKSGTASVVCLLNNFYPREAKVQWKVDNALQSGNSQESVTEQDSKDSTYSLSSTLTLSKADYEKHKVYACEVTHQGLSSPVTKSFNRGEC
notes: DVD-Ig; also called DVD1332H; DVD1332L
Kd (Recombinant Human PlGF): 0.055 nM | koff (Recombinant Human PlGF): 0.00017 s⁻¹ | kon (Recombinant Human PlGF): 3e+06 M⁻¹ s⁻¹

B10: AB005 (antibody, V domains shown)
VH: EVQLVQSGGGLVKPGGSLRLSCAASGFTFSSYAMHWVRQAPGKGLEWVAVISYDGSNKYYADSVKGRFTISRDNSKNTLYLQMNSLRAEDTAVYYCARFSGWPNNYYYYGMDVWGQGTTVTVSS
VL: DVVMTQSPLSLPVTPGEPASISCRSSQSLLHSNGFNYVDWYLQKPGQSPHLLIYFGSYRASGVPDRFSGSGSGTDFTLKISRVEAEDVGVYYCMQALQTPPWTFGQGTKVEIRR
notes: Parent antibody; also called RON
Kd [6]: 20.2 nM | koff [6]: 0.000739 s⁻¹ | kon [6]: 36600 M⁻¹ s⁻¹

B11: DVD1334 (bispecific antibody, human IgG1, kappa)
heavy: not shown
light: QAVLTQPSSLSAPPGASASLTCTLRSGFNVDSYRISWYQQKPGSPPQYLLRYKSDSDKQQGSGVPSRFSGSKDASANAGILLISGLQSEDEADYYCMIWHSSAWVFGGGTKLTVLRTVAAPDIQMTQSPSSLSASVGDRVTITCRASEDIYNALAWYQQKPGKAPKLLIYNTDTLHTGVPSRFSGSGSGTDYTLTISSLQPEDFATYFCQHYFHYPRTFGQGTKVEIKRTVAAPSVFIFPPSDEQLKSGTASVVCLLNNFYPREAKVQWKVDNALQSGNSQESVTEQDSKDSTYSLSSTLTLSKADYEKHKVYACEVTHQGLSSPVTKSFNRGEC
notes: DVD-Ig; also called DVD1334H; DVD1334L
Kd [6]: 5.7 nM | koff [6]: 0.0067 s⁻¹ | kon [6]: 1.2e+06 M⁻¹ s⁻¹
